Experiment [1] addresses Peptide 1593 (…) (Mycobacterium tuberculosis). Nature of the experiment: ELISA, NNK clone supernatant on coated peptide. (In an ELISA, binding on a coated surface is turned into a signal by an enzyme label.)
Experiment [2] has the same target. Nature of the experiment: ELISA, NNK clone supernatant on coated peptide (22 hits).

“And” between values parts separate entries of the source, which are not always exact repeats. Identical values can stand only once.

B1: 65D3 chimeric Fab, NNK library L8 mutant N to H (VL N30H) (Fab, V domains shown)
VH: QSLEESGGRLVTPGGSLTLTCTVSGFSLSTHDISWVRQAPGKGLEWIGVIARRGSTYYASWAKGRFTISKTSTTVDLKITSPTIEDTATYFCAREEFDFWGQGTLVTVSS
VL: AVLTQTASPVSAAVGGTVTISCQSSQSVYHNKELSWFQQKPGQPPKLLISYASTLASGVPSRFKGSGSGTQFTLTISDLECDDAATYYCLGGYASTIDMWAFGGGTEVVVK
B1: in experiment [1], the OD450 nm was 1.02 OD450 and 0.957 OD450; the ratio (OD450 to WT OD450) is 1.34 fold of WT and 1.25 fold of WT. In experiment [2], the OD450 nm turned out to be 0.957 OD450 and the ratio (OD450 to WT OD450) was 1.26 fold of WT.

B2: 65D3 chimeric Fab, NNK library L20 mutant S to H (VL S57H) (Fab, V domains shown)
VH: QSLEESGGRLVTPGGSLTLTCTVSGFSLSTHDISWVRQAPGKGLEWIGVIARRGSTYYASWAKGRFTISKTSTTVDLKITSPTIEDTATYFCAREEFDFWGQGTLVTVSS
VL: AVLTQTASPVSAAVGGTVTISCQSSQSVYNNKELSWFQQKPGQPPKLLISYASTLAHGVPSRFKGSGSGTQFTLTISDLECDDAATYYCLGGYASTIDMWAFGGGTEVVVK
B2: in experiment [1], the OD450 nm stood at 0.596 OD450 and the ratio (OD450 to WT OD450) is 1.25 fold of WT. Besides, in experiment [2], the OD450 nm was found to be 0.596 OD450 and the ratio (OD450 to WT OD450) was 1.25 fold of WT.

B3: 65D3 chimeric Fab, NNK library H25 mutant K to R (VH K63R) (Fab, V domains shown)
VH: QSLEESGGRLVTPGGSLTLTCTVSGFSLSTHDISWVRQAPGKGLEWIGVIARRGSTYYASWARGRFTISKTSTTVDLKITSPTIEDTATYFCAREEFDFWGQGTLVTVSS
VL: AVLTQTASPVSAAVGGTVTISCQSSQSVYNNKELSWFQQKPGQPPKLLISYASTLASGVPSRFKGSGSGTQFTLTISDLECDDAATYYCLGGYASTIDMWAFGGGTEVVVK
Regarding B3, in experiment [1], the OD450 nm is 0.872 OD450 and the ratio (OD450 to WT OD450) was 1.4 fold of WT. In experiment [2], the OD450 nm was 0.872 OD450 and the ratio (OD450 to WT OD450) is 1.4 fold of WT.

B4: 65D3 chimeric Fab, NNK library L18 mutant L to S (VL L55S) (Fab, V domains shown)
VH: QSLEESGGRLVTPGGSLTLTCTVSGFSLSTHDISWVRQAPGKGLEWIGVIARRGSTYYASWAKGRFTISKTSTTVDLKITSPTIEDTATYFCAREEFDFWGQGTLVTVSS
VL: AVLTQTASPVSAAVGGTVTISCQSSQSVYNNKELSWFQQKPGQPPKLLISYASTSASGVPSRFKGSGSGTQFTLTISDLECDDAATYYCLGGYASTIDMWAFGGGTEVVVK
Take B4: in experiment [1], the OD450 nm turned out to be 0.968 OD450 and the ratio (OD450 to WT OD450) was 1.3 fold of WT. In experiment [2], the OD450 nm worked out at 0.968 OD450 and the ratio (OD450 to WT OD450) was 1.3 fold of WT.

B5: 65D3 chimeric Fab, NNK library L2 mutant S to G (VL S24G) (Fab, V domains shown)
VH: QSLEESGGRLVTPGGSLTLTCTVSGFSLSTHDISWVRQAPGKGLEWIGVIARRGSTYYASWAKGRFTISKTSTTVDLKITSPTIEDTATYFCAREEFDFWGQGTLVTVSS
VL: AVLTQTASPVSAAVGGTVTISCQGSQSVYNNKELSWFQQKPGQPPKLLISYASTLASGVPSRFKGSGSGTQFTLTISDLECDDAATYYCLGGYASTIDMWAFGGGTEVVVK
On to B5, for which the OD450 nm in experiment [1] was 1.02 OD450 and 1.11 OD450; in experiment [2], 1.11 OD450. Further, the ratio (OD450 to WT OD450) was 1.23 fold of WT and 1.33 fold of WT in experiment [1]; 1.33 fold of WT in experiment [2].

B6: 65D3 chimeric Fab, NNK library L18 mutant L to N (VL L55N) (Fab, V domains shown)
VH: QSLEESGGRLVTPGGSLTLTCTVSGFSLSTHDISWVRQAPGKGLEWIGVIARRGSTYYASWAKGRFTISKTSTTVDLKITSPTIEDTATYFCAREEFDFWGQGTLVTVSS
VL: AVLTQTASPVSAAVGGTVTISCQSSQSVYNNKELSWFQQKPGQPPKLLISYASTNASGVPSRFKGSGSGTQFTLTISDLECDDAATYYCLGGYASTIDMWAFGGGTEVVVK
Consider B6, for which the OD450 nm in experiment [1] and in experiment [2] was 0.937 OD450 in each case. Moreover, the ratio (OD450 to WT OD450) in experiment [1] and in experiment [2] was 1.26 fold of WT throughout.

The values are drawn from US12649778.
